# Reference: the supplement of paper PMC7125110
# ± gives the standard error. Fewer inactive variants are shown than the library holds.
# B1: glmS ribozyme (parent)
# chain: AUAAAAGCGCCAGAACUACAGAAAUGUAGUUGACGAGGAGGAGGUUUAUCGAAUUUUCGGCGGAUGCCUCCAAA
# Variants of: B1
# Experiment: self-cleavage kobs at 2500 uM GlcN6P; higher = faster cleavage; RNA array
# Details: with glucosamine-6-phosphate
# Outline: (§1)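 Weighted Michaelis–Menten fits across concentrations supplied kcat and KM, based on kobs from one- or two-exponential decay fits to normalised per-tile medians. The data came from barcoded ribozyme variants transcribed in situ by E. coli RNA polymerase on sequenced MiSeq chips and tracked at 37 °C by a hybridised Cy3 probe. Glucosamine-6-phosphate (40 μM to 10 mM) in HEPES/KCl/Mg(OAc)2 buffer was flowed in.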
row,Variant,self-cleavage kobs at 2500 uM GlcN6P
1,C10G U47C A53U U54A C70U,< 1e-05 s⁻¹
2,U30G G32U G35A A53G,< 1e-05 s⁻¹
3,A6G A14U U54A,0.000117 ± 2.9e-05 s⁻¹
4,G37A U49A A52G,< 1e-05 s⁻¹
5,C16U U46C C61G,< 1e-05 s⁻¹
6,C8A G41A G44U,< 1e-05 s⁻¹
7,U31C C34U U69C,< 1e-05 s⁻¹
8,A12U U30A G37A G59U,< 1e-05 s⁻¹
9,C16G U30C C34G U55C C61U C67U,< 1e-05 s⁻¹
10,A14C A15U C61U C67A,< 1e-05 s⁻¹
11,A53G C61U C68G,6.94e-05 ± 2.7e-05 s⁻¹
12,A36U C58G C70U,6.88e-05 ± 2.4e-05 s⁻¹
13,A52U U56A C58G,< 1e-05 s⁻¹
14,C34U C50U,< 1e-05 s⁻¹
15,A12C A15U U46A C71A,< 1e-05 s⁻¹
16,A33C G40A A48C G51C G60C,< 1e-05 s⁻¹
17,G32C A53C U65C,< 1e-05 s⁻¹
18,G13A G35A G44A,< 1e-05 s⁻¹
19,G7U A33U U69G,0.000542 ± 0.00021 s⁻¹
20,A14G U55G G66U,0.00182 ± 0.00038 s⁻¹
21,G13A U47A G66A,0.000103 ± 2.2e-05 s⁻¹
22,G29U G37A G38C G60U,< 1e-05 s⁻¹
23,A6G C11A U49G,< 1e-05 s⁻¹
24,C11U U31C G41U A64G C70A,0.0011 ± 0.0003 s⁻¹
25,A6G U31A U49A,< 1e-05 s⁻¹
26,G41C G44U U54A C68A C71A,< 1e-05 s⁻¹

row,Variant,self-cleavage kobs at 2500 uM GlcN6P
1,C8A C16U A33U C68U,< 1e-05 s⁻¹
2,C11U U46A G62U,< 1e-05 s⁻¹
3,A39G G40C G41C U46G A52G,< 1e-05 s⁻¹
4,G29C C34A U47A U56C,< 1e-05 s⁻¹
5,C10U G29U A39G U57C C71A,< 1e-05 s⁻¹
6,G37C U55A A64G,4.29e-05 ± 1.2e-05 s⁻¹
7,G35C A48G A53U,< 1e-05 s⁻¹
8,A52U C61G C67U,8.45e-05 ± 3e-05 s⁻¹
9,U47A U55C U69C,0.000127 ± 4.1e-05 s⁻¹
10,C16A G32A G37U,< 1e-05 s⁻¹
11,A39U G41U C71A,4.06e-05 ± 2e-05 s⁻¹
12,G7C C11A G60C,< 1e-05 s⁻¹
13,G40A G44A,4.13e-05 ± 1.2e-05 s⁻¹
14,C11A A33G G35U A52G,< 1e-05 s⁻¹
15,C8G G29U A36C A48G C70U,< 1e-05 s⁻¹
16,C8U A15U U31C A36G U46A A52U C58A C67U C70U,< 1e-05 s⁻¹
17,G9C A39U U45C C58U,< 1e-05 s⁻¹
18,A12G U54C U65G,3.01e-05 ± 1.2e-05 s⁻¹
19,A6C A14U C50G C61G C68G C70U,0.000499 ± 0.00017 s⁻¹
20,G38U G40U C70A,< 1e-05 s⁻¹
21,A5U A64U,8.83e-05 ± 2.8e-05 s⁻¹
22,G38A U45C A52U,< 1e-05 s⁻¹
23,U46G C61U A64G,< 1e-05 s⁻¹
24,C16U U57A,6.81e-05 ± 2.8e-05 s⁻¹
25,G38U U57A G60C G66U,< 1e-05 s⁻¹
26,C61U U65A C67U C70A,5.06e-05 ± 2.1e-05 s⁻¹

row,Variant,self-cleavage kobs at 2500 uM GlcN6P
1,A6U A15G A53G,0.000262 ± 4.9e-05 s⁻¹
2,A15C A23C,0.00398 ± 0.0014 s⁻¹
3,U31G C68U C71U,7.95e-05 ± 3.1e-05 s⁻¹
4,G13U A14G U47C,8e-05 ± 2.7e-05 s⁻¹
5,G13U A48G U57G,< 1e-05 s⁻¹
6,G13U U31G G37C A48C,< 1e-05 s⁻¹
7,A12G G29U U47G,6.74e-05 ± 1.5e-05 s⁻¹
8,U46G C50G C68G,4.12e-05 ± 2e-05 s⁻¹
9,C11A C16U U54G G59A,0.000138 ± 3e-05 s⁻¹
10,A12U A14U G66A,0.000704 ± 0.00016 s⁻¹
11,G9C U45A,< 1e-05 s⁻¹
12,A36U A42U G59U,< 1e-05 s⁻¹
13,C34U U45G,< 1e-05 s⁻¹
14,G38U G40U A48U C68G,< 1e-05 s⁻¹
15,G40U G44A U55C C67U,< 1e-05 s⁻¹
16,G32U C34U A42G U46C A64C,< 1e-05 s⁻¹
17,C16G G40U U55A G60U,0.000989 ± 0.00047 s⁻¹
18,C11U A14G U49C,< 1e-05 s⁻¹
19,C8G G13U A39U C68G,< 1e-05 s⁻¹
20,C58U C61G G66U,6.41e-05 ± 2.3e-05 s⁻¹
21,G41C A42G U55A,9.68e-05 ± 2.6e-05 s⁻¹
22,A39C A42G A52U,6.4e-05 ± 1.5e-05 s⁻¹
23,C50G U57C C71G,0.000255 ± 0.00012 s⁻¹
24,A14C U30G A42G A53C,7.92e-05 ± 2.7e-05 s⁻¹

# Variants of: B1
# Experiment: self-cleavage kobs at 10000 uM GlcN6P; higher = faster cleavage; RNA array
# Details: with glucosamine-6-phosphate
# Outline: as §1
row,Variant,self-cleavage kobs at 10000 uM GlcN6P
1,G37A U49A A52G,< 1e-05 s⁻¹
2,A53G C61U C68G,4.37e-05 ± 1.2e-05 s⁻¹
3,A14G U55G G66U,0.00253 ± 0.00062 s⁻¹
4,G13A U47A G66A,0.000143 ± 2.8e-05 s⁻¹
5,G37C U55A A64G,6.99e-05 ± 1.4e-05 s⁻¹
6,C11A A33G G35U A52G,< 1e-05 s⁻¹
7,C16U U57A,0.000194 ± 4.1e-05 s⁻¹
8,A6U A15G A53G,0.000262 ± 5.8e-05 s⁻¹
9,A15C A23C,0.00556 ± 0.0014 s⁻¹
10,G13U A14G U47C,0.000208 ± 5.4e-05 s⁻¹
11,C34U U45G,< 1e-05 s⁻¹
12,C50G U57C C71G,9.26e-05 ± 3.1e-05 s⁻¹
